Assay [1] has as its target K63-linked diubiquitin (Boston Biochem) (Homo sapiens (Human)) (UniProt P0CG48). The experiment in a line: western blot, 1 µg/mL IgG, two-fold dilutions of K63-linked diubiquitin. (In general: In western blotting, separated proteins are transferred to a membrane and probed.)
Assay [2] deals with endogenous K48 polyubiquitin linkages in 293T cell lysates (human) (UniProt P0CG48). The experiment in a line: IP in 7 M urea from LUBAC over-expressing 293T lysate (input 12420), mass spec AQUA.
The target of assay [3] is endogenous K63 polyubiquitin linkages in 293T cell lysates (human) (UniProt P0CG48). Description: IP in 7 M urea from LUBAC over-expressing 293T lysate (input 5075), mass spec AQUA.

For two substances, limit of detection in western blot and polyubiquitin linkages recovered in the IP results are on record in patent US20250243265A1.

Consider Apu3.A8 anti-K63 IgG (antibody), for which the limit of detection in western blot in assay [1] came out at 62 ng. Regarding “isotype control IgG (unrelated human kappa IgG1 antibody)”, the polyubiquitin linkages recovered in the IP turned out to be 1 pmol in assay [2] and 0 pmol in assay [3].
